Experiment [1] concerns the target T1, human BMP-6 (human, UniProt P22004 382-513, limits assumed).
T1 sequence: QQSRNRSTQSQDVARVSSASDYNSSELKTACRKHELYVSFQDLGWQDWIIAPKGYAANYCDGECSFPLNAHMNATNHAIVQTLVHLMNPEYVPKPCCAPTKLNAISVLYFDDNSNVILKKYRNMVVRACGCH
Description: cell-based or functional assay.

For experiment [2], the target named is T1, human BMP-6. Description: SPR (BIAcore), BMP-6 immobilised on CM4 chip, antibody injected, 37 C. For orientation: SPR reads the build-up and loss of mass on a sensor chip optically.
For experiment [3], the target named is T1, human BMP-6. Description: cell-based or functional assay. This is another data set of the same source.
Experiment [4] addresses T1, human BMP-6. Description: SPR (BIAcore), ratio of KD against MAB507, 37 C.
Experiment [5] deals with T2, human BMP-5 (human, UniProt P22003 317-454, limits assumed).
T2 sequence (looked up): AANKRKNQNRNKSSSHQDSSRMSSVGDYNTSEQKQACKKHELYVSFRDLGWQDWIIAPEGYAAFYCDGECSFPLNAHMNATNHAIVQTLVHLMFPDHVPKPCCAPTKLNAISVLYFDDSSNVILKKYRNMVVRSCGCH
Description: SPR (BIAcore), BMP immobilised on CM4 chip, antibody injected, 37 C.

The target in experiment [6] is T3, human BMP-7 (human, UniProt P18075 293-431).
T3 sequence (looked up): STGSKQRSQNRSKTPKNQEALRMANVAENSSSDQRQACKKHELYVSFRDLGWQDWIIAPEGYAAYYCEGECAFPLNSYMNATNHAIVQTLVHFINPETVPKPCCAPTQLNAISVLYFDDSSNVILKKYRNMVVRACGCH
The description is as above.

For experiment [7], the target named is T1, human BMP-6. Description: SPR (BIAcore), Fab on human BMP-6, 37 C.
Experiment [8] has as its target T4, rat BMP-6 (rat, UniProt Q04906 368-506, limits assumed).
T4 sequence (looked up): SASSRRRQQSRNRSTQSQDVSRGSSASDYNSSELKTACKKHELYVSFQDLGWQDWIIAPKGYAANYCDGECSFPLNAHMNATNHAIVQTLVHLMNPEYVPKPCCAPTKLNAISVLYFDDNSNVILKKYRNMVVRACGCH
Description: SPR (BIAcore), Fab on rat BMP-6, 37 C.

Experiment [9] concerns the target T1, human BMP-6. Description: SPR (BIAcore), Fab on human BMP-6, 37 C. This is another data set of the same source.
Experiment [10] has as its target T5, Cynomolgus monkey BMP-6 (cynomolgus monkey).
T5 construct: also called Cyno Monkey BMP-6
Description: SPR (BIAcore), Fab on cynomolgus monkey BMP-6, 37 C.

The text below walks through data of US20140309404A1 (Eli Lilly, published 2014).

B1: Antibody I (antibody, human IgG4 S228P, kappa, F234A L235A, V domains shown)
VH: QVQLVQSGAEVKKPGSSVKVSCKASGYTFTSYAMHWVRQAPGQGLEWMGYINPYNDGTKYNENFKGRVTITADESTSTAYMELSSLRSEDTAVYYCARRPFGNAMDIWGQGTLVTVSS
VL: DIQMTQSPSSLSASVGDRVTITCRSSENIYRNLAWYQQKPGKAPKLLIYAATNLADGVPSRFSGSGSGTDFTLTISSLQPEDFATYYCQGIWGTPLTFGGGTKVEIKR
notes: Engineered antibody with human frameworks and constant regions
For B1, the “Geometric Mean IC50 (nM), BMP-6 induced Hep_Luc Assay (hepcidin promoter luciferase, HepProm_Luc cells)” value in experiment [1] worked out at 0.99 nM. For the same molecule, in experiment [2], binding was put at a Kd of 0.02 nM, the koff amounted to 4.05e-05 s⁻¹ and the kon was 1.73e+06 M⁻¹ s⁻¹. Moreover, the “fold potency against MAB507 in inhibition of BMP-6-induced hepcidin promoter luciferase activity” value in experiment [3] is roughly 22 fold. Besides, the “fold higher affinity than MAB507” value in experiment [4] came to 50 fold. In addition, the binding result in experiment [5] was “no binding (tested: up to 1000 nM antibody)”. The binding result in experiment [6] is “no binding (tested: up to 1000 nM antibody)”.

B2: Antibody II (antibody, human IgG4 S228P, kappa, F234A L235A, V domains shown)
VH: QVQLVQSGAEVKKPGSSVKVSCKASGYTFTSYAMHWVRQAPGQGLEWMGYINPYNRGTKYNENFKGRVTITADESTSTAYMELSSLRSEDTAVYYCARRPFGNAMDIWGQGTLVTVSS
VL: DIQMTQSPSSLSASVGDRVTITCRSSENIYRNLAWYQQKPGKAPKLLIYAATNLADGVPSRFSGSGSGTDFTLTISSLQPEDFATYYCQGIWGTPLTFGGGTKVEIKR
On to B2, for which the “Geometric Mean IC50 (nM), BMP-6 induced Hep_Luc Assay (hepcidin promoter luciferase, HepProm_Luc cells)” value in experiment [1] was determined as 0.94 nM. In addition, the “fold potency against MAB507 in inhibition of BMP-6-induced hepcidin promoter luciferase activity” value in experiment [3] is roughly 22 fold.

B3: Fab of Antibody I (Fab, V domains shown)
VH: QVQLVQSGAEVKKPGSSVKVSCKASGYTFTSYAMHWVRQAPGQGLEWMGYINPYNDGTKYNENFKGRVTITADESTSTAYMELSSLRSEDTAVYYCARRPFGNAMDIWGQGTLVTVSS
VL: DIQMTQSPSSLSASVGDRVTITCRSSENIYRNLAWYQQKPGKAPKLLIYAATNLADGVPSRFSGSGSGTDFTLTISSLQPEDFATYYCQGIWGTPLTFGGGTKVEIK
notes: These are the variable regions of Antibody I; also called Antibody I Fab
For the molecule B3, the Kd in experiment [7] was 0.09 nM; in experiment [8], 0.088 nM; in experiment [9] it was 0.0845 nM; in experiment [10] it was 0.0796 nM. For the same molecule, the koff was 0.00023 s⁻¹ in [7], 0.0003 s⁻¹ in experiment [8], 0.00028 s⁻¹ in experiment [9] and 0.00028 s⁻¹ in [10]. For the same molecule, the kon in [7] came out at 2.5e+06 M⁻¹ s⁻¹; in [8] it was 4.1e+06 M⁻¹ s⁻¹; in [9], 3.7e+06 M⁻¹ s⁻¹; in [10], 4.1e+06 M⁻¹ s⁻¹.

B4: Fab of Antibody II (Fab, V domains shown)
VH: QVQLVQSGAEVKKPGSSVKVSCKASGYTFTSYAMHWVRQAPGQGLEWMGYINPYNRGTKYNENFKGRVTITADESTSTAYMELSSLRSEDTAVYYCARRPFGNAMDIWGQGTLVTVSS
VL: DIQMTQSPSSLSASVGDRVTITCRSSENIYRNLAWYQQKPGKAPKLLIYAATNLADGVPSRFSGSGSGTDFTLTISSLQPEDFATYYCQGIWGTPLTFGGGTKVEIK
notes: These are the variable regions of Antibody II; also called Antibody II Fab
In [7], B4 yielded a Kd of 0.08 nM, a koff of 0.00025 s⁻¹ and a kon of 3e+06 M⁻¹ s⁻¹.

As a reminder, the Kd is the free concentration of one partner at which half of the binding sites on the other are occupied at equilibrium, for simple one-to-one binding. Usually koff stands for a measure of how fast the partners let go of each other. As a reminder, the kon is a measure of how fast the partners come together.
